Measured values as given in US20220195015A1 (published 2022).
Substitutions are numbered along the chain they refer to.

B1: C552 (antibody, V domains shown)
VH: QVQLVESGGGVVQPGRSLRLSCAASGFTFSSYAMHWVRQAPGKGLEWVALISYDGSNKHYADSVKGRFTISRDNSKNTLYLQMNSLRAEDTAVYYCARAGTTNSDYFDYWGQGTLVTVSS
VL: SYELTQPPSVSVAPGKTARITCGGNNIGSKSVHWYQQKPGQAPVLVIYYDTDRPSGIPERFSGSNSGNTATLTISRVEAGDEADYYCQVWDSSSALWVFGGGTKLTVL
B2: C553 (antibody, V domains shown)
VH: B1 VH with S31N, A33E, M34I, L50G, N57T, H59Y, A88P, Y94F
VL: B1 VL with K16M, N26T, P39A, T51S, A95V
B3: C533 (antibody, V domains shown)
VH: EVQLVESGGSLVKPGGSLRLSCVASGLTFNHAWMSWVRQAPGKGLEWVGRIKSKIDGGTTDYAAPVKGRFTISRDDSKSTQYLQMNSLKTEDTAVYYCTTDCFWRLGGTTCYEHDAFDVWGQGTMVTVSS
VL: DIQMTQSPSSLSASVGDRVTITCRASQAIATFLNWYQQKPGKAPKLLIYAASSLQSGVPSRFSGSGSGTDFTLTISNLQPEDFATYYCQQSYNSLHFGGGTKVEIK
B4: C550 (antibody, V domains shown)
VH: EVQLVQSGAEVKKPGESLKISCKGSGYRFTNYWIGWVRQMPGKGLEWMGIIYPGDSDTRYSPSFQGQVTISADKSITTAYLQWSSLKASDTAMYYCARLSDRWYSPFDPWGQGTLVTVSS
VL: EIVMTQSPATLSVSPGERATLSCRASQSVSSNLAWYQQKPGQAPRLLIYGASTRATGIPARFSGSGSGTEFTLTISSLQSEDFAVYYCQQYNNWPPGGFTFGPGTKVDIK
B5: C558 (antibody, V domains shown)
VH: EVQLVQSGAEVKKPGESLKISCKVSGYTFTNYWIGWVRQMPGKGLEWMGIIYPGDSDTRYSPSFQGQVTISADKSIITAYLQWSSLKASDTAMYYCARVPSSSDYGDYGGFEYWGQGTLVTVSS
VL: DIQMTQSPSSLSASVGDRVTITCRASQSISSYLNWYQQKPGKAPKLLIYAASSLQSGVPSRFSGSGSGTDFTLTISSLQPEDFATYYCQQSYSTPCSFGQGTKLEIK
B6: C559 (antibody, V domains shown)
VH: B5 VH with Y52F, K74R, I77T, S84R
VL: DIQMTQSPSSLSASVGDRVTITCRASQTITIYLNWYQQKPGKAPKLLIYAASSLQSGVPSRFSGSGSGTDFTLTISSLQPEDFATYYCQQSYSTPCSFGQGTKLEIK
B7: C556 (antibody, V domains shown)
VH: QVQLVQSGAEVKKPGASVKVSCKASGYTFTYYYMHWVRQAPGQGLEWMGIINPSGGSTSYAQKFQGRVTMTRDTSTSTVYMELSSLRSEDTAVYYCARPLLPGETGSLNRLDYWGQGTLVTVSS
VL: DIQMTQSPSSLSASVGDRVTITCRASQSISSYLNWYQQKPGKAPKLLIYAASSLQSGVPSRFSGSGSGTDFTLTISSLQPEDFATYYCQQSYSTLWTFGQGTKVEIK
B8: C560 (antibody, V domains shown)
VH: EVQLVESGGGLVQPGRSLRLSCAASGFTFDDYAMHWVRQAPGKGLEWVSGVSWNSGTIGYADSVKGRFTISRDNAKNSLYLQMNSLRAEDTALYYCAKIADIVRAYDFWSGQHFDAFDIWGQGTMVTVSS
VL: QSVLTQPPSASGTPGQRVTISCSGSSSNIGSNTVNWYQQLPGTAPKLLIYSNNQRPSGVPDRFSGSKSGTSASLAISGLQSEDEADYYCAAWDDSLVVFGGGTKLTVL
B9: C561 (antibody, V domains shown)
VH: B8 VH with M34I, T69F, L93W, I102L, R104G, W109R, D115A, I119V
VL: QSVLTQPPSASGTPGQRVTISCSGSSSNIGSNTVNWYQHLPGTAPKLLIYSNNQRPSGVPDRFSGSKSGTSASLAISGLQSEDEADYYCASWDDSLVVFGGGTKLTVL
B10: C555 (antibody, V domains shown)
VH: EVQLVESGGGLVKPGGSLRLSCAASGLTFSTTWMSWVRQAPGKGLEWVGRIKSKGDGGTTDFAGPVKGRFSISRDDSKNTLYLHMNSLKTEDTAVYYCTTDDPGSYYYGMDVWGQGTTVTVSS
VL: QTVVTQEPSLTVSPGGTVTLTCASSTGAVTSGHYPYWFQQKPGQAPRTLIYATSNKHSWTPARFSGSLLGGKAALTLSGAQPEDEADYYCLLSYSGARVFGGGTKLTVL
B11: C534 (antibody, V domains shown)
VH: QVQLVQSGAEVKKPGSSVRVSCKASGGTFSRNVISWVRQAPGQGLEWMGGIIPMFATANYAQKFQGRVTITADESSSTAYMELSSLRSEDTAVYYCAREDFILVSAPIRENSYYYYGMDVWGQGTTVTVSS
VL: EIVLTQSPGTLSLSPGERATLSCRASQSVSSNYLAWYQQKPGQAPRLLIYDASSRATGIPDRFSGSGSGTDFTLTISRLEPEDFAVYYCQQYGGSPRTFGQGTKVEIK
B12: C571 (antibody, V domains shown)
VH: EVQLVESGGGLIQPGGSLKLSCVVSGFTVSRNYISWVRQAPGKGLEWVSVLFAGGSTFYADSVKGRFAISRDNSNNTLFLQMNSLRVEDTAIYYCARGDGELIFDQWGQGTLVTVSS
VL: QSVLTQPPSVSGAPGQRVTIVCTGTSSNIGAGYDVHWYQQLPGRAPKVLVSGNNIRPSEVPDRFSGSRSGTSASLAITSLQPEDEAQYYCQSYDSNLYAVFGGGTKLTVL
B13: C576 (antibody, V domains shown)
VH: QVQLVQSGAEVKKPGSSVKVSCKASGGTFSIYAISWVRQAPGQGLEWMGGIIPILGTANYAQKFQGRVTITADESTSTAYMELSSLRSEDTAVYYCASFHVAYGDYIPFDYWGQGTLVTVSS
VL: not shown
B14: C572 (antibody, V domains shown)
VH: EVQLVESGGGLIKPGRSLRLSCTASGFTFGDYAMTWFRQAPGKGLEWVGFIRSKAYGGTTGYAASVKYRFTISRDDSKSIAYLQMDSLKTEDTAVYYCTRWDGWSQHDYWGQGTLVTVSS
VL: DIVMTQSPLSLSVTPGEPASISCRSSQSLLHSNGNNYFDWYLQKPGQSPQLLIYLASNRASGVPDRFSGSGSGTDFTLKISRVEAEDVGVYYCMQVLQIPYTFGQGTKLEI
B15: C574 (antibody, V domains shown)
VH: QVQLVQSGAEVKKPGASVKVSCKASGYTFTSYGFSWVRQAPGQGLEWLGWISAYNGNTNYAQKLQGRVTMTTDTSTSTAYMELRSLRSDDTAVYYCARAIAVAGTSGEFDYWGQGTLVTVSS
VL: not shown
B16: C570 (antibody, V domains shown)
VH: QVQLQESGPGLVKPSETLSLTCTVSGASISSYYWSWIRQPPGKGLEWIGYIYYSGSTNYNPSLKSRVTISLDTSKNQFSLQLSSVTAADTAVYYCATYYFDNSGYSYGLDVWGQGTTVTVSS
VL: DIQMTQSPSSLSASVGDRVTIACRASQSISSYLHWYQQQPGKAPKLLIYAVTNLQSGVPSRFSGSGSGTDFTLTISSLQPEDFATYYCQQSYSLPQTFGQGTKVEIK
B17: C581 (antibody, V domains shown)
VH: EVQLVQSGAEVKKPGESLKISCKGSGYRFTSYWIAWVRQMPGKGLEWMGIIYPGDSDTRYSPSFQGQVTISADQSISTAYLQWSSLKASDTAMYYCARGGPPGGVKLELTDYWGQGALVTVSS
VL: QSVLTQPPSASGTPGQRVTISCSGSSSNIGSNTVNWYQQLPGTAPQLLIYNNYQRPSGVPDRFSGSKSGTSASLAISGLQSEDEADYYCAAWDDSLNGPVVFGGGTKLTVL
B18: C567 (antibody, V domains shown)
VH: QVQLQESGPGLVKPSETLSLTCTVSGGSVINGSYYWSWIRQPPGKGLEWIGFVYYSGSTNYNPSLKSRVTISVDTSKNQFSLNLNSVTAADTAVYYCATGSKSSYYFDYWGQGTLVTVSS
VL: QSVLTQPPSVSAAPGQKVTISCSGSSSNIGNNYVSWYQQLPGAAPKLLIYENNMRPSGIPDRFSGSKSGTSATLGITGLQTGDEADYYCGTWDSSLSVPYVFGTGTRVTVL
B19: C573 (antibody, V domains shown)
VH: QVQLQESGPGLVKPSGTLSLTCAVSGGSISTVNWWSWVRQPPGKGLEWIGEIHHSGNTNHNPSLRSRVTISVDKSKNQFSLKLRSVTAADTAVYYCARDGGRPGDAFDLWGQGTMVTVSS
VL: QSALTQPASVSGSPGQSITISCTGTSSDVGGYNYVSWYQQHPGKVPKVMIYDVSNRPSGISNRFSGSKSGNTASLTISGLQAEDEADYYCNSYRSNSTRVFGTGTKVTV
B20: C577 (antibody, V domains shown)
VH: QVQLVQSGAEVKKPGSSVKVSCKASGDTFSIYAFSWVRQAPGQGLQWMGAIIPLLGTTNYAQKFLGRVTITADESTSTTFMELSSLTSEDTAVYHCATFHVAYGDYIPFDSWGQGTLVIVSS
VL: not shown
B21: C565 (antibody, V domains shown)
VH: EVQLVESGGGLIQPGGSLRLSCAASGLIVSSNYMNWVRQAPGKGLEWVSLLYSGGSTYYADSVKGRFTISRDNSKNTLYLQMNSLRPEDTAVYYCARDLSVVGAFDIWGQGTMVTVSS
VL: EIVLTQSPGTLSLSPGERATLSCRASQSLPSTYLAWYQQKRGQAPRLLIYGASSRATGIPDRFSGSGSGTDFTLTISRLEPEDFAVYYCQQYGTSPRVTFGPGTKVDIK
B22: C569 (antibody, V domains shown)
VH: QVQLVESGGNVVQPGRSLRLSCAASGFTFSNYGMHWIRQAPGKGLEWVAVISYDGSDKYYADSVKGRVTISRDNSKNTLYLQMNSLRAEDTAVYYCAKGGPYGDHVRSDYWGLGTLVTVSS
VL: DIQMTQSPSSLSASVGDRVTITCQASQDISNYLNWYQQKPGKVPKLLIYDASNLETGVPSRFSGSGSGTDFTFTISSLQPEDIATYYCQQFHNLPLTFGQGTKLEIK
B23: C568 (antibody, V domains shown)
VH: QVQLVQSGAEVKKPGASVKVSCTASGYTFSSYYIHWVRQAPGQGLEWMGIINPGAGSTSYAQKFQGRVAMTTDTSTRTVYMELSSLRSDDTAVYYCARDEAFLPSAIFVGDYWGQGTLVTVSS
VL: DIQMTQSPSSLSASVGDRVTITCRASQGIRNDLGWYQQKPGKAPKRLIYAASNLQSGVPSRFSGSGSGTEFTLTISSLQPEDFATYYCLQHSTYPHTWTFGQGTKVEIK
B24: C566 (antibody, V domains shown)
VH: QVQLQESGPGLVKSSQTLSLNCSVFGASISSGGYYWTWIRQHPGKGLEWIGYIHYRGTYYNPSLKSRVTMSVDTSKNQFSLKVRSVSAADTAIYYCARAIVVVTLNWFDLWGQGTLVTVSS
VL: NFMLTQPHSVSESPGKTVTISCSGSGGSIASNYVQWYQQRPGSAPTAVIYEDNQRPSGVPDRFSGSIDSSSNSASLTISGLKTEDEADYYCQSYDTSNPVIFGGGTKLTV
B25: C578 (antibody, V domains shown)
VH: QVQLVESGGGVVQPGRSLRLSCAASGFTFSSSGMHWVRQAPGKGLEWVAIISYDGSNKYYADSVKGRFTISRDNSKNTLSLQMNSLRAEDTAVYYCAKDPLPFRDFFYYYMDVWGKGTTVTVSS
VL: QSALTQPASVSGSPGQSITISCTGTSSDVGGYNYVSWYQQHPGKAPKLMIYDVSNRPSGVSNRFSGSKSGNTASLTISGLQAEDEADYYCSSYTSSSTLGVFGTGTKVTVL
B26: C580 (antibody, V domains shown)
VH: EVQLVQSGAEVKKAGESLKISCNSSGYSFTNYWIAWVRQVPGKGLEWMGIIYLGDSDTRYSPSFQGRVTISADKSISAAYLHWSSLKASDTAIYYCARGGPPGGVKLELTDFWGQGTLVTVSS
VL: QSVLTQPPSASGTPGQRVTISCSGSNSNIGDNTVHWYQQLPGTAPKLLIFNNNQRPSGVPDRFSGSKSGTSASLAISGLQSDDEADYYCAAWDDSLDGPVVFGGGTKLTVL

Biological target: SARS-CoV-2 spike protein receptor binding domain (RBD) (SARS-CoV-2, UniProt P0DTC2 319-539)
Assay: ELISA, RBD coated on plate, mAb titrated

Binder | EC50 [ng/mL]
B1 | 1.08
B2 | 1.19
B3 | 1.61
B4 | 2.56
B5 | 2.41
B6 | 2.89
B7 | 1.36
B8 | 1.6
B9 | 1.53
B10 | 2.88
B11 | 4.85

Biological target: SARS-CoV-2 spike protein receptor binding domain (RBD) (SARS-CoV-2, UniProt P0DTC2 319-539)
Assay: ELISA on plate-coated RBD

Binder | EC50 [ng/mL]
B12 | 4.63
B13 | 5.29
B14 | 2.9
B15 | 8.12
B16 | 0.74
B17 | 1.58
B18 | 18.9
B19 | 2.2
B20 | 1.32
B21 | 1.27
B22 | 11.1
B23 | 5.99
B24 | 5.88
B25 | 1.08
B26 | 1.82
